Experimental data: patent US20210113678A1 (ENTEROME S A, published 2021)

Tests used:
[1] = biological target: T1, HLA-A*0201 molecule expressed by the human tumoral cell T2 (human); test: T2 cell HLA-A2 stabilisation assay, flow cytometry with anti-HLA-A2 BB7.2-PE
T1 construct: MHC class I on T2 cells; The tested peptide is added from outside; Surface HLA-A2 is read with anti-HLA-A2 antibody BB7.2-PE; also called HLA-A2

[2] = biological target: T2, HLA-A*0201 molecule on human T2 cells (human); test: T2 cells expressing HLA-A*0201, anti-HLA-A2-PE, FACS
T2 construct: read out with anti-HLA-A2 antibody BB7.2-PE; also called HLA-A2

[3] = biological target: T2, HLA-A*0201 molecule on human T2 cells; test: as above; remark: listed apart in the source
[4] = biological target: T2, HLA-A*0201 molecule on human T2 cells; test: T2 cells expressing HLA-A*0201, anti-HLA-A2-PE, FACS (Example 8)
[5] = biological target: T2, HLA-A*0201 molecule on human T2 cells; test: T2 cells expressing HLA-A*0201, anti-HLA-A2-PE, FACS (Example 9)
[6] = biological target: T2, HLA-A*0201 molecule on human T2 cells; test: as above; remark: listed apart in the source
[7] = biological target: T2, HLA-A*0201 molecule on human T2 cells; test: T2 cells expressing HLA-A*0201, anti-HLA-A2-PE, FACS (Example 7)

Binder | mean relative fluorescence intensity at 1.5625 µM peptide [2] | mean relative fluorescence intensity at 3.125 µM peptide [2] | mean relative fluorescence intensity at 6.25 µM peptide [2] | mean relative fluorescence intensity at 25 µM peptide [2] | mean relative fluorescence intensity at 50 µM peptide [2] | mean relative fluorescence intensity at 100 µM peptide [2] | Concentration of peptide that induces 20% of HLA-A2 expression [3] | In vitro binding affinity (relative to reference peptide HIV pol 589-597) [3] | further results
FLPFGFILV [IL13RA2-B, listing 1 of 2 here] |  |  |  |  |  |  |  |  | binding result [1]: binds
FLPFGFILM [peptide 1F9M, listing 1 of 2 here] |  |  |  |  |  |  |  |  | binding result [1]: binds
ALPFGFILV [comparative peptide 1A9V, listing 1 of 2 here] |  |  |  |  |  |  |  |  | binding result [1]: binds
ILPFGFILA [peptide 1I9A, listing 1 of 2 here] |  |  |  |  |  |  |  |  | binding result [1]: binds
ILDEAYVRV [EGFR-B] | 12.7 % of HIV peptide | 22.7 % of HIV peptide | 29.2 % of HIV peptide | 53.2 % of HIV peptide | 66.7 % of HIV peptide | 70.3 % of HIV peptide | 3.1 µM | 0.2 | 
FLVEDETVI [EZH2-B] | 5.5 % of HIV peptide | 14.4 % of HIV peptide | 28.9 % of HIV peptide | 53.9 % of HIV peptide | 82.6 % of HIV peptide | 94.9 % of HIV peptide | 8.8 µM | 0.7 | 
LLLSAALSV [CHI3L1B] | 13.5 % of HIV peptide | 23.9 % of HIV peptide | 44 % of HIV peptide | 45.3 % of HIV peptide | 85 % of HIV peptide | 58.9 % of HIV peptide | 3.6 µM | 0.9 | 
FLPFGFILPV [IL13RA2-L] |  |  |  |  |  |  |  | 0.3 | In vitro binding affinity (relative to reference peptide HIV pol 589-597) [4]: 0.3
FMVEDETVL (Fragment of human EZH2) [EZH2-H] | 0 % of HIV peptide | 0.7 % of HIV peptide | 10.6 % of HIV peptide | 40.7 % of HIV peptide | 66 % of HIV peptide | 95.4 % of HIV peptide | 13.3 µM | 1.1 | 
LMLGEFLKL [peptide 2M, listing 1 of 2 here] |  |  |  |  |  |  |  |  | mean relative fluorescence intensity at 0.1 µM peptide [5]: 0.76 % of HIV peptide; mean relative fluorescence intensity at 1 µM peptide [5]: 8.37 % of HIV peptide; mean relative fluorescence intensity at 10 µM peptide [5]: 48.5 % of HIV peptide; mean relative fluorescence intensity at 100 µM peptide [5]: 75.2 % of HIV peptide; Concentration of peptide that induces 20% of HLA-A2 expression [6]: 2.87 µM; In vitro binding affinity (relative to reference peptide HIV pol 589-597) [6]: 3.38
FMLGEFLKL [BIRC5-B1, listing 1 of 2 here] | 1.9 % of HIV peptide | 22.3 % of HIV peptide | 36.1 % of HIV peptide | 61.7 % of HIV peptide | 77.1 % of HIV peptide | 117 % of HIV peptide | 2.7 µM | 0.8 | mean relative fluorescence intensity at 0.1 µM peptide [5]: 1.07 % of HIV peptide; mean relative fluorescence intensity at 1 µM peptide [5]: 17.4 % of HIV peptide; mean relative fluorescence intensity at 10 µM peptide [5]: 65.1 % of HIV peptide; mean relative fluorescence intensity at 100 µM peptide [5]: 102 % of HIV peptide; Concentration of peptide that induces 20% of HLA-A2 expression [6]: 1.24 µM; In vitro binding affinity (relative to reference peptide HIV pol 589-597) [6]: 1.46
LTLGEFLKL [BIRC5-H, listing 1 of 2 here] | 1.7 % of HIV peptide | 1.4 % of HIV peptide | 10.8 % of HIV peptide | 9.8 % of HIV peptide | 18.9 % of HIV peptide | 35.6 % of HIV peptide | 53 µM | 16.1 | mean relative fluorescence intensity at 0.1 µM peptide [5]: 0 % of HIV peptide; mean relative fluorescence intensity at 1 µM peptide [5]: 0 % of HIV peptide; mean relative fluorescence intensity at 10 µM peptide [5]: 3.52 % of HIV peptide; mean relative fluorescence intensity at 100 µM peptide [5]: 20.5 % of HIV peptide; Concentration of peptide that induces 20% of HLA-A2 expression [6]: 95.9 µM; In vitro binding affinity (relative to reference peptide HIV pol 589-597) [6]: 113
FLDSLGFST [TYMS-H2] | 1.6 % of HIV peptide | 4.5 % of HIV peptide | 6.1 % of HIV peptide | 32.5 % of HIV peptide | 37.2 % of HIV peptide | 50.6 % of HIV peptide | 9.5 µM | 0.8 | 
FLDSLGFSL [TYMS-B2] | 10.7 % of HIV peptide | 21.5 % of HIV peptide | 27.5 % of HIV peptide | 61.1 % of HIV peptide | 62 % of HIV peptide | 71.3 % of HIV peptide | 2.7 µM | 0.2 | 
LMLGEFLKL [peptide 2M, listing 2 of 2 here] |  |  |  |  |  |  |  |  | binding result [1]: binds
FMLGEFLKL [BIRC5-B1, listing 2 of 2 here] |  |  |  |  |  |  |  |  | binding result [1]: binds
LTLGEFLKL [BIRC5-H, listing 2 of 2 here] |  |  |  |  |  |  |  |  | binding result [1]: binds
YTLGEFLYI [BIRC5-B2] |  | 6.6 % of HIV peptide | 9 % of HIV peptide | 29.6 % of HIV peptide | 54.4 % of HIV peptide | 58 % of HIV peptide | 14.7 µM | 4.5 | 
ILPFGFILA [peptide 1I9A, listing 2 of 2 here] |  |  |  |  |  |  |  |  | In vitro binding affinity (relative to reference peptide HIV pol 589-597) [7]: 2.22
YLLSAALTI [CHI3L1B3] | 2.5 % of HIV peptide | 14.3 % of HIV peptide | 30.2 % of HIV peptide | 36.7 % of HIV peptide | 108 % of HIV peptide | 76.9 % of HIV peptide | 8.6 µM | 2.2 | 
SMEELLWFV [TYMS-B] | 15.9 % of HIV peptide | 30.4 % of HIV peptide | 36 % of HIV peptide | 49.3 % of HIV peptide | 65.7 % of HIV peptide | 80.9 % of HIV peptide | 1.1 µM | 0.1 | 
FLPFGFILV [IL13RA2-B, listing 2 of 2 here] | 14.8 % of HIV peptide | 15.7 % of HIV peptide | 40.8 % of HIV peptide | 86.5 % of HIV peptide | 113 % of HIV peptide | 128 % of HIV peptide | 2.9 µM | 0.3 | Concentration of peptide that induces 20% of HLA-A2 expression [4]: 2.9 µM; In vitro binding affinity (relative to reference peptide HIV pol 589-597) [4]: 0.3; In vitro binding affinity (relative to reference peptide HIV pol 589-597) [7]: 0.49
FLPFGFILM [peptide 1F9M, listing 2 of 2 here] |  |  |  |  |  |  |  |  | In vitro binding affinity (relative to reference peptide HIV pol 589-597) [7]: 2.62
ALPFGFILV [comparative peptide 1A9V, listing 2 of 2 here] |  |  |  |  |  |  |  |  | Concentration of peptide that induces 20% of HLA-A2 expression [4]: 36.5 µM; In vitro binding affinity (relative to reference peptide HIV pol 589-597) [4]: 3.6; In vitro binding affinity (relative to reference peptide HIV pol 589-597) [7]: 3.06
GLLGEFLQI (also called B1RC5-B3) [BIRC5-B3] | 9.4 % of HIV peptide | 8.9 % of HIV peptide |  | 20.9 % of HIV peptide | 29.8 % of HIV peptide | 35 % of HIV peptide | 22.9 µM | 7 | 
